T1: Boi1 SH3 (BOI1_YEAST), P38041
T1 chain: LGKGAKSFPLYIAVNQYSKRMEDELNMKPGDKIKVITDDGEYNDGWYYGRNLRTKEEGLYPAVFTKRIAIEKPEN

T2: Boi2 SH3 (BOI2_YEAST), P39969
T2 chain: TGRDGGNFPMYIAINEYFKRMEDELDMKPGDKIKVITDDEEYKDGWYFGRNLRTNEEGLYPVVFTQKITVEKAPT

T3: Myo5 SH3 (MYO5_YEAST), Q04439
T3 chain: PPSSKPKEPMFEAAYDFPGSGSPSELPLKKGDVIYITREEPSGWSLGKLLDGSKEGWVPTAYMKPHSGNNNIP

T4: Rvs167 SH3 (RV167_YEAST), P39743
T4 chain: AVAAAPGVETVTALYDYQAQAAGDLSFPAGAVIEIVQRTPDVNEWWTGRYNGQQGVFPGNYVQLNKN

T5: Yfr024 SH3 (LSB3_YEAST), P43603
T5 chain: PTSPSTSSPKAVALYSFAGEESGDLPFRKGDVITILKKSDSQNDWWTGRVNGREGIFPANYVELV

T6: Yhr016c SH3 (YSC84_YEAST), P32793
T6 chain: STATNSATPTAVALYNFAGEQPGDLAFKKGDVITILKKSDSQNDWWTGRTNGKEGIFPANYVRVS


Assays:
Test in all cases: SPOT array
[1] = molecular target: Sho1 SH3 (SHO1_YEAST), P40073
[2] = molecular target: T1, Boi1 SH3 (BOI1_YEAST), P38041
[3] = molecular target: T2, Boi2 SH3 (BOI2_YEAST), P39969
[4] = molecular target: T3, Myo5 SH3 (MYO5_YEAST), Q04439
[5] = molecular target: T4, Rvs167 SH3 (RV167_YEAST), P39743
[6] = molecular target: T5, Yfr024 SH3 (LSB3_YEAST), P43603
[7] = molecular target: T6, Yhr016c SH3 (YSC84_YEAST), P32793

Chain of Sho1 SH3 (SHO1_YEAST), P40073 (P40073 295-366): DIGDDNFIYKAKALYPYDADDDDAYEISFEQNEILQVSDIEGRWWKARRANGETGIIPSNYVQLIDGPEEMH

Row | normalised SPOT signal, Boehringer light units (BLU); mean over the file's lines of this peptide [1] | normalised SPOT signal, Boehringer light units (BLU); mean over the file's lines of this peptide [2] | normalised SPOT signal, Boehringer light units (BLU); mean over the file's lines of this peptide [3] | normalised SPOT signal, Boehringer light units (BLU); mean over the file's lines of this peptide [4] | normalised SPOT signal, Boehringer light units (BLU); mean over the file's lines of this peptide [5] | normalised SPOT signal, Boehringer light units (BLU); mean over the file's lines of this peptide [6] | normalised SPOT signal, Boehringer light units (BLU); mean over the file's lines of this peptide [7] | Binder
1 | 608 | – | – | – | – | – | – | MVRPAPPRRADPEG [11-24 Hypothetical ORF]
2 | 35.9 | 444 | 47.2 | 276 | 56.6 | 344 | 73.5 | NPFVRINPNRPEAA [YBR136W 500-513]
3 | 749 | – | – | – | – | – | – | MVTPSKPPKKSVGF [147-160 Hypothetical ORF]
4 | 64.6 | 2270 | 152 | 419 | 6090 | 6960 | 4310 | NNLKKRPPTAPQRK [YPR171W 465-478]
5 | 415 | – | – | – | – | – | – | MLIPNFPNKKLKLN
6 | 284 | – | – | – | – | – | – | MSLPVTPVKSKVSS [50-63 Putative participant in 3' mRNA processing]
7 | 201 | – | – | – | – | – | – | NDDPVIPYKLSKDT [1037-1050 DNA replication helicase]
8 | 60.6 | 585 | 126 | 114 | 344 | 389 | 1140 | NLYQRTTPAGPDPS [YOL019W 467-480]
9 | 53 | 743 | 1.2 | 12500 | 64.5 | 518 | 198 | NIPTKSPPKSPKHK [YLL065W 94-107]
10 | 102 | – | – | – | – | – | – | LVTPEEPAKNKSER [13-26 Hypothetical ORF]
11 | 184 | – | – | – | – | – | – | NHIPPFPLRFSFAQ [532-545 Hypothetical ORF]
12 | 210 | – | – | – | – | – | – | NANPFLPNKHPVTQ [38-51 Mitochondrial ribosomal protein MRPL25 (YmL25)]
13 | 182 | – | – | – | – | – | – | LVQPNVPEKHNMST [144-157 Hypothetical ORF]
14 | 181 | – | – | – | – | – | – | MKAPKMPDKHRDNY [923-936 similar to RNA helicases]
15 | 40.5 | 360 | 25.4 | 779 | 216 | 154 | 135 | NLSLRYAPNLPPVI [YHL035C 1327-1340]
16 | 143 | – | – | – | – | – | – | NAPPYVPQRSKQPD [165-178 " Radiation repair protein, putative DNA helicase"]
17 | 104 | 426 | 142 | 363 | 1080 | 327 | 2740 | NLKTKSHPEVPRLD [YLR189C 152-165]
18 | 164 | – | – | – | – | – | – | MEYPFKPPKMQFDT [60-73 ubiquitin-conjugating enzyme]
19 | 46.1 | – | – | – | – | – | – | LVQPVVPDKVFSFR [368-381 Hypothetical ORF]
20 | 141 | – | – | – | – | – | – | MVLPPAPPKNSDPS [764-777 mitohcondrial RNA polymerase]
21 | 148 | – | – | – | – | – | – | LTSPKNPIKSVTKF [569-582 translation termination factor eRF3]
22 | 1770 | 203 | 20.8 | 247 | 58900 | 39600 | 44100 | NNSTRPIPAIPMDL [YJL133W 8-21]
23 | 74.8 | 3420 | 18.7 | 292 | 124 | 187 | 110 | NITEKSPPKSPKHK [YDR543C 77-90]
24 | 67.2 | 187 | 21 | 278 | 67.8 | 835 | 90.5 | NKIPKHLPADPIFS [YCR032W 1499-1512]
25 | 88.2 | 635 | 22.9 | 872 | 83.6 | 568 | 81.6 | NKPKRKRPAPPKKK [YFR013W 78-91]
26 | 330 | – | – | – | – | – | – | NEYPSKPPKVKFPA [66-79 ubiquitin-conjugating enzyme]
27 | 96.7 | – | – | – | – | – | – | LTLPFGPVKSIWLS [189-202 glucosyltransferase]
28 | 1100 | – | – | – | – | – | – | MALPRTPLKTSTEE [276-289 Small regulatory subunit of Acetolactate synthase]

Source: paper PMC314469, “Protein Interaction Networks by Proteome Peptide Scanning” (PLoS Biology, 2004)
